We go through 167 variants from the RNAGym collection of RNA variant scans (doi:10.1093/nar/gkz1192).

B1: CPEB3 Ribozyme (parent)
chain: UAACAGGGGGCCACAGCAGAAGCGUUCACGUCGCAGCCCCUGUCAGAUUCUGGUGAAUCUGCGAAUUCUGCUGUAUAUCUC

In this data set the parent is B1. Nature of the data set: self-cleavage, relative activity (ratio to wild type); higher = more cleavage; in vitro, sequencing. In short, it runs like this:
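Libraries of CPEB3 self-cleaving ribozyme mutants came from rounds of error-prone PCR and carried barcodes, which DNA sequencing matched to variants. In vitro transcription used T7 RNA polymerase at 37°C for 5 hours, with a further 15 min in DNase I before EDTA stopped the reaction; the ribozymes cleaved during both steps. The RNA was reverse transcribed with template switching and sequenced on Illumina. Relative activity is the cleaved/total read fraction of a variant divided by that of the unmutated ribozyme, averaged over three batches with at least 5 reads.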
Regarding U31C U60C, the self-cleavage was found to be 0.29. The value for C23U A56G was 0.31; that for U60C U76C was 0.51. Regarding A5G U80A, the self-cleavage was found to be 0.79. The same measure for A47G U49C: 0.33; for G8C A64U: 0.22. The same measure for A2U A28G: 0.65. Turning to U1C G73U, the self-cleavage is 1.08. Turning to G24A U78A, the self-cleavage was 0.07. For the variant C23G U25C, the self-cleavage was determined as 0.28.

As for U43C A56G, the self-cleavage was determined as 0.33. Take U69G U76C: the self-cleavage came out at 0.98. G8C A28G: the self-cleavage was determined as 0.22. For the variant C38G U80A, the self-cleavage is 0.26. A3G A77C: the self-cleavage is 1.03. The value for A77U was 1.11; that for U74C U78G was 1.17. The value for U1C U76A was 0.78.

U31A G53C: the self-cleavage was determined as 0.51. G9A A64U: the self-cleavage is 0.39. For the variant A5G U43A, the self-cleavage was 0.84. A2G U54A: the self-cleavage came out at 0.66. The same measure for C12U A45C: 0.64. The same measure for G8A U78A: 0.37; for A2G U48A: 0.09. Turning to A28U U58A, the self-cleavage came out at 0.26.

For the variant G9C A35G, the self-cleavage came to 0.27. The same measure for U48C C71U: 0.32; for U31A G73C: 1.08. Turning to C11G A35U, the self-cleavage worked out at 0.18. The value for G33A C40U was 0.38; that for G9U A15U was 0.32; that for C17G U54A was 0.54.

In the case of U51A U76A, the self-cleavage came out at 1.09. The value for A56G U60G was 0.34; that for A5G A56U was 0.43; that for A21G U60G was 0.29.

As for A21G U60C, the self-cleavage amounted to 0.27.

Take A45U A57U: the self-cleavage was found to be 0.33. The same measure for G10U A56U: 0.08.

Take C62A A65G: the self-cleavage was determined as 0.36. The value for G10U C40U was 0.06; that for U31A U80A was 0.61. In the case of C40A U54C, the self-cleavage came to 0.28. In the case of G19A U69C, the self-cleavage was determined as 0.13. In the case of U60G A64G, the self-cleavage worked out at 0.42. The same measure for U67A G70A: 0.45.

Consider C38U, for which the self-cleavage stood at 0.9. The same measure for U67G: 0.4; for U31G A35G: 1.1; for G6U U74G: 0.4.

On to A21G C50U, for which the self-cleavage was 0.62. The same measure for G8U U66G: 0.13; for C34A A56U: 0.43; for A21G C23U: 0.2. As to A3U U78G, the self-cleavage worked out at 1.2. The value for C12G A45C was 0.12; that for C40G U48A was 0.67; that for A5U U80G was 1.14.

Regarding A28G U78G, the self-cleavage turned out to be 0.67. A47C U67C: the self-cleavage worked out at 0.12.

As for C50U U72A, the self-cleavage was 0.28. The same measure for C40A G63A: 0.12; for G73A A77G: 1.31; for G53A A65U: 0.22. The value for C12A U80C was 1.23; that for U51G U54G was 0.24.

Turning to G36U U69A, the self-cleavage stood at 0.2. With A20U U74A, the self-cleavage was determined as 0.54.

As to U43G A56G, the self-cleavage amounted to 0.23. The same measure for U41C C71A: 0.33; for G52A U72C: 1.21; for C23U U72G: 0.1.

For U1A A35U, the self-cleavage amounted to 0.49. The same measure for A21C U80C: 0.1; for U25C C37U: 0.19; for A13G C32A: 0.16. Regarding G9A U31A, the self-cleavage amounted to 0.16. The value for A28G U58C was 0.27; that for U41G U74C was 0.35. The value for A13G A57G was 0.72.

Regarding C29A A77G, the self-cleavage stood at 0.46. The same measure for G52U U80C: 1.05; for G10C U69G: 0.16. U74C A77G: the self-cleavage was 1.32.

On to G30U C62A, for which the self-cleavage turned out to be 0.08. The same measure for G8A U25A: 0.05; for A64U U72G: 0.37. Take C40G U41G: the self-cleavage turned out to be 0.6. The value for A18G U49A was 0.32.

Consider G19C U60A, for which the self-cleavage worked out at 0.16. Turning to A45G U67C, the self-cleavage came out at 0.34.

In the case of C23U U69C, the self-cleavage was determined as 0.19. The same measure for G22A U51C: 0.2. The same measure for C4U A65G: 0.43; for A15G C79U: 1.04. On to G6A C38A, for which the self-cleavage stood at 0.1.

A45U G52C: the self-cleavage is 0.29. The value for U26C U69C was 0.27; that for A45G was 0.85.

Take U67G U69C: the self-cleavage came to 0.5. As for A13C G70A, the self-cleavage came out at 0.44. Turning to A3G U43C, the self-cleavage turned out to be 0.49. Turning to G46U U67A, the self-cleavage was 0.23.

For the variant A15G U72G, the self-cleavage turned out to be 0.46. The value for C37A U48A was 0.12. The same measure for U1A C32U: 0.3. The same measure for C37U A47U: 0.39. For A28G A75U, the self-cleavage turned out to be 0.73. The same measure for U67C U74A: 0.31; for A35G G42A: 0.5. On to U41G U54G, for which the self-cleavage is 0.23. As to G9A G52A, the self-cleavage worked out at 0.24.

As for G22U U76A, the self-cleavage was found to be 0.33. As for G8U U26C, the self-cleavage was found to be 0.14. The value for C37A C39A was 0.29.

Turning to A35G U80G, the self-cleavage was determined as 1.37. The value for C59U G73A was 1.45.

G33C G52A: the self-cleavage amounted to 0.19. Consider C23G A56U, for which the self-cleavage amounted to 0.4. Turning to A13C A64G, the self-cleavage came out at 0.93. The value for U43A U49G was 0.52. The same measure for U26A C81G: 1.1; for G33A U80A: 0.29.

A15G C50G: the self-cleavage came out at 0.57. On to U25C U51A, for which the self-cleavage was 0.27. In the case of A2G U74C, the self-cleavage came out at 1.12. On to C32U, for which the self-cleavage came to 0.28. For U1A C12G, the self-cleavage came to 0.43. The value for A64G G73A was 1.24; that for A65U U80A was 0.15; that for G7U U51G was 0.2. The value for A20G U66G was 0.37. The value for A2U A5G was 0.71.

On to A45U U66G, for which the self-cleavage was 0.13. Consider G6A A35G, for which the self-cleavage was found to be 0.86. On to A20C A77U, for which the self-cleavage turned out to be 0.35. The same measure for C4U C37G: 0.9; for G6A A28C: 0.15. For A64U U66G, the self-cleavage is 0.13.

Consider U58A A75G, for which the self-cleavage worked out at 0.46. The value for A20G U54A was 0.97. As for A45G U51A, the self-cleavage stood at 0.74. The same measure for A45G U51G: 0.64; for A5C A15C: 0.81; for U60C U67G: 0.2. With A5G A28C, the self-cleavage stood at 0.61.

As for A5C U43C, the self-cleavage is 0.57. The value for G61C was 0.34; that for U26G A35G was 0.8; that for U51A U69C was 0.67.

Turning to U54G A77G, the self-cleavage was determined as 0.74. The same measure for U54G C68U: 0.68; for C59A U80C: 0.38; for C17U C71A: 0.15.

Consider A3C U26C, for which the self-cleavage stood at 0.6. The same measure for U41A G73U: 0.42; for U41A G73A: 0.45. Turning to G6C U58A, the self-cleavage came out at 0.21. The value for A21G G46C was 0.18; that for A3G C17A was 0.33; that for U1A U66C was 0.4.

With C12A C79A, the self-cleavage is 1.28. The value for G30A U72A was 0.2; that for G30A U78C was 0.24. As to A35U G55U, the self-cleavage amounted to 0.43. The value for A5C U67A was 0.48.
